The target of the test is CH848 day 949 SOSIP Env trimer (soluble SOSIP trimer derived from a virus isolated from the CH848 individual at day 949 post infection) (HIV-1). Kind of test: method not stated; affinities shown in Figure 1B; reference DH270 UCA.

The substance DH270.I5 Fab showed a fold improvement of Env binding affinity relative to the UCA of 8 fold.

These data come from patent EP4580670A2.
